The source of these data is US20210301005A1 (Genentech, published 2021).

First the molecules themselves.
T1: human TGFβ2, mature receptor-binding domain (human, UniProt P09858 303-414 (pig entry), The mature TGFβ2 is a disulfide-linked homodimer of this 112-residue chain. The 4A11 epitope spans both monomers (p-1207).)
T1 construct: Peprotech; also called TGFb2
T1 sequence: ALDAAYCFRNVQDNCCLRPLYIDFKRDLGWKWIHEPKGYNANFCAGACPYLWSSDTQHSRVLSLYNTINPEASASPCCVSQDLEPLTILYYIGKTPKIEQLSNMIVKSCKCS

T2: human TGFβ3, mature dimeric form (human, UniProt P10600 301-412)
T2 construct: Peprotech, expressed in E. coli; also called TGFb3
T2 sequence: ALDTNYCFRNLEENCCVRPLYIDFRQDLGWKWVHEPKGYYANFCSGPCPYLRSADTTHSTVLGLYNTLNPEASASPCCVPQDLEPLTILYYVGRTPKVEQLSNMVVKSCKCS

B1: h2A10.v2.6 (antibody, human IgG1, kappa, N297G, V domains shown)
VH: EVQLLESGGGLVQPGGSLRLSCAASGFDFNSYGMSWVRQAPGKGLELVSDIVSKTYNYTTYYSDSVKDRFTISRDDSKSTVYLQMNSLRAEDTAVYYCTVAPGGSFDYWGQGTLVTVSS
VL: DIQLTQSPSSLSASVGDRVTITCRASQSVSISRFNLMHWYQHKPGKQPKLLIYRASNLASGIPSRFSGSGSGTDFTLTISSLQPEDFATYYCQHSRESPWTFGGGTKVEIKR
B2: h2A10.v2.8 (antibody, human IgG1, kappa, N297G, V domains shown)
VH: B1 VH with S49A, S79N
VL: B1 VL
B3: h2A10.v2.9 (antibody, human IgG1, kappa, N297G, V domains shown)
VH: B1 VH with S49A, V81L
VL: B1 VL
B4: h4A11.v4 (antibody, human IgG1, kappa, N297G, V domains shown)
VH: EQQLQESGPGLVKPSETLSLTCTVTGFSLSSYTVNWVRQPAGKGLEWIGYISYGGSAYYASWANGRFTISKDSSKNQVSLKLSSVTAADTAVYFCARHMQVGGAPTGSMAAFDPWGPGTLVTVSS
VL: DAQLTQSPSSLSASVGDRVTITCQSSQSVYNNNYLSWFQQKPGKPPKLLIYGASTLTSGVPSRFSGSGSGTDFTLTISSLQPEDFATYYCAGGYSGSSDKYAFGGGTKVEIKR
B5: h4A11.v8 (antibody, V domains shown)
VH: B4 VH
VL: DAVLTQTPLSSPVTLGQPASISCQSSQSVYNNNYLSWFQQRPGQPPRLLIYGASTLTSGVPDRFSGSGAGTDFTLKISRVEAEDVGVYYCAGGYSGSSDKYAFGGGTKVEIK
B6: h4A11.v1 (antibody, human IgG1, kappa, N297G, V domains shown)
VH: EQQLVESGGGLVQPGGSLRLSCAVSGFSLSSYTVNWVRQAPGKGLEWIGYISYGGSAYYASWANGRFTISKDSAKNSVYLQMNSLRAEDTAVYFCARHMQVGGAPTGSMAAFDPWGPGTLVTVSS
VL: DAVLTQSPDSLAVSLGERATINCQSSQSVYNNNYLSWFQQKPGQPPKLLIYGASTLTSGVPDRFSGSGSGTDFTLTISSLQAEDVAVYYCAGGYSGSSDKYAFGGGTKVEIKR
B7: h4A11.v2 (antibody, human IgG1, kappa, N297G, V domains shown)
VH: B6 VH
VL: B4 VL
B8: h4A11.v5 (antibody, human IgG1, kappa, N297G, V domains shown)
VH: B6 VH
VL: EAVLTQSPGTLSLSPGERATLSCQSSQSVYNNNYLSWFQQKPGQPPRLLIYGASTLTSGVPDRFSGSGSGTDFTLTISRLEPEDFAVYYCAGGYSGSSDKYAFGGGTKVEIKR
B9: h4A11.v3 (antibody, human IgG1, kappa, N297G, V domains shown)
VH: B4 VH
VL: B6 VL
B10: h4A11.v6 (antibody, human IgG1, kappa, N297G, V domains shown)
VH: B6 VH
VL: DAVLTQTPLSSPVTLGQPASISCQSSQSVYNNNYLSWFQQRPGQPPRLLIYGASTLTSGVPDRFSGSGAGTDFTLKISRVEAEDVGVYYCAGGYSGSSDKYAFGGGTKVEIKR
B11: h4A11.v7.18 (antibody, human IgG1, kappa, N297G, V domains shown)
VH: B4 VH with Q2V, V37I, F67V, S73T, P117Q
VL: B8 VL with A2I, P45A, V60I
B12: h4A11.v7.17 (antibody, human IgG1, kappa, N297G, V domains shown)
VH: B4 VH with Q2V, V37I, F67V, S73T, F94Y, P117Q
VL: B8 VL with A2I, P45A, V60I
B13: h4A11.v7.16 (antibody, human IgG1, kappa, N297G, V domains shown)
VH: B4 VH with Q2V, V37I, F67V, S73T, V78F, P117Q
VL: B8 VL with A2I, P45A, V60I

Substitutions are numbered along the chain they refer to. A value given as a limit tells only on which side of the number the result lay.

T3 sequence (P01137 279-390 limits assumed): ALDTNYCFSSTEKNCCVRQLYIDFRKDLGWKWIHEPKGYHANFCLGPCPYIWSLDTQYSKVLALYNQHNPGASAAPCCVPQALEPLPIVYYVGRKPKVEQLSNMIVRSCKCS

The first experiment has as its target T1, human TGFβ2, mature receptor-binding …. Put plainly: BIAcore T200. As for the experimental part:
(§1) For binding affinity determinations of all humanized 2A10 antibodies, Surface Plasmon Resonance (SPR) measurement with a BIAcore™-T200 instrument was used. Briefly, series S CM5 biosensor chip with protein A was first applied to capture each humanized 2A10 variant to achieve approximately 100 response units (RU) on each flow cell, following by injection of 3-fold serial dilutions of human TGFβ1, TGFβ2 or TGFβ3 (0.02 nM to 5 nM) in HBS-EP buffer (0.01M HEPES pH 7.4, 0.15M NaCl, 3 mM EDTA and 0.05% v/v surfactant P20) at 25° C. with a flow rate of 50 μl/min for kinetics measurement. Association rates (ko.) and dissociation rates (koff) were calculated using a simple one-to-one Langmuir binding model (BIAcore T200 evaluation software version 2.0) to determine the equilibrium dissociation constant (KD), which was calculated as the ratio koff/kₒₙ.
For B1, the affinity, expressed as Kd, was 0.249 nM.

On to B2, for which binding was put at a Kd of 0.365 nM. This Kd and that of the molecule before are within 1.5-fold of each other.

Regarding B3, binding was characterised by a dissociation constant (Kd) of 0.768 nM. Compared with the last molecule, the Kd is about 2.1-fold higher.

The next experiment concerns the target T2, human TGFβ3, mature dimeric form. Nature of the experiment: BIAcore T200. Here is the method:
as §1
With B1, the Kd was found to be 0.0015 nM.

The molecule B2 yielded a Kd of 0.0012 nM.

Molecule B3 displayed a Kd of 0.0007 nM.

The next experiment concerns the target T1, human TGFβ2, mature receptor-binding …. Nature of the experiment: BIAcore T200. The source holds these as a separate data set. Here is the method:
as §1
(§2) Binding affinity determinations of all humanized 4A11 antibodies were performed using SPR measurement with a BIAcore™-T200 instrument, as described above in Example 6 ([…]).
B4 showed a Kd of 0.01 nM.

B5 yielded a dissociation constant Kd of 0.0082 nM.

For B6, binding was put at a Kd of 0.0046 nM.

As to B7, the dissociation constant (Kd) was 0.0014 nM. This Kd is about 3.3-fold lower than that of the molecule before.

On to B8, for which the Kd was 0.0121 nM.

Regarding B9, the Kd worked out at 0.0096 nM.

In the case of B10, the equilibrium dissociation constant (Kd) was 0.0084 nM.

The next experiment deals with T2, human TGFβ3, mature dimeric form. Put plainly: BIAcore T200. This is another data set of the same source. As for the experimental part: as §1, §2
Turning to B4, the Kd is 0.0101 nM.

Regarding B5, the Kd was 0.0141 nM.

In turn, B6 showed a dissociation constant Kd of 0.0144 nM.

B7 showed a Kd of 0.0133 nM. This Kd and that of the molecule before are within 1.5-fold of each other.

Molecule B8 had a Kd of 0.0139 nM.

As for B9, the Kd turned out to be 0.0121 nM.

As for B10, the Kd came to 0.0125 nM.

A further experiment concerns the target T1, human TGFβ2, mature receptor-binding …. Put plainly: BIAcore T200. The source holds these as a separate data set. Here is the method:
as §1, §2
As for B11, the Kd worked out at 0.0011 nM.

With B12, the equilibrium dissociation constant (Kd) is 0.0013 nM. This Kd and that of the molecule before are within 1.5-fold of each other.

In the case of B13, the Kd is 0.0049 nM.

The target of the next experiment is T2, human TGFβ3, mature dimeric form. Nature of the experiment: BIAcore T200. The source holds these as a separate data set. As for the experimental part:
as §1, §2
Molecule B11 registered a Kd of 0.0046 nM.

The molecule B12 came in with a Kd of 0.0032 nM. The Kd values of the last two molecules are within 1.5-fold of each other.

Regarding B13, binding was characterised by a dissociation constant (Kd) of 0.0066 nM.

The next experiment has as its target T3, human TGFβ1, mature receptor-binding domain (human, UniProt P01137 279-390). Put plainly: cell-based or functional assay.
B1: the “HEKBlue TGFβ blocking IC50” value was greater than 200 nM.

On to B2, for which the “HEKBlue TGFβ blocking IC50” value is greater than 200 nM.

Regarding B3, the “HEKBlue TGFβ blocking IC50” value was greater than 200 nM.

The target of a further experiment is T1, human TGFβ2, mature receptor-binding …. Nature of the experiment: cell-based or functional assay.
As for B1, the “HEKBlue TGFβ blocking IC50” value is greater than 200 nM.

Turning to B2, the “HEKBlue TGFβ blocking IC50” value is greater than 200 nM.

Turning to B3, the “HEKBlue TGFβ blocking IC50” value is greater than 200 nM.

In the next experiment the target is T2, human TGFβ3, mature dimeric form. Nature of the experiment: cell-based or functional assay.
With B1, the “HEKBlue TGFβ blocking IC50” value came to 0.01 nM.

As for B2, the “HEKBlue TGFβ blocking IC50” value was determined as 0.01 nM.

For the molecule B3, the “HEKBlue TGFβ blocking IC50” value worked out at 0.01 nM.

Another experiment addresses T3, human TGFβ1, mature receptor-binding …. Nature of the experiment: cell-based or functional assay. The source holds these as a separate data set.
Take B4: the “HEKBlue TGFβ blocking IC50” value is greater than 200 nM.

As for B5, the “HEKBlue TGFβ blocking IC50” value was greater than 200 nM.

In the case of B6, the “HEKBlue TGFβ blocking IC50” value was greater than 200 nM.

With B7, the “HEKBlue TGFβ blocking IC50” value was greater than 200 nM.

B8: the “HEKBlue TGFβ blocking IC50” value is greater than 200 nM.

B9: the “HEKBlue TGFβ blocking IC50” value was greater than 200 nM.

Regarding B10, the “HEKBlue TGFβ blocking IC50” value was greater than 200 nM.

A further experiment deals with T1, human TGFβ2, mature receptor-binding …. Put plainly: cell-based or functional assay. The source holds these as a separate data set.
With B4, the “HEKBlue TGFβ blocking IC50” value stood at 1.9 nM.

Take B5: the “HEKBlue TGFβ blocking IC50” value was greater than 200 nM.

Turning to B6, the “HEKBlue TGFβ blocking IC50” value is greater than 200 nM.

Regarding B7, the “HEKBlue TGFβ blocking IC50” value is greater than 200 nM.

On to B8, for which the “HEKBlue TGFβ blocking IC50” value is greater than 200 nM.

Turning to B9, the “HEKBlue TGFβ blocking IC50” value was determined as 3.9 nM.

Regarding B10, the “HEKBlue TGFβ blocking IC50” value was greater than 200 nM.

The target of the next experiment is T2, human TGFβ3, mature dimeric form. Nature of the experiment: cell-based or functional assay. The source holds these as a separate data set.
Turning to B4, the “HEKBlue TGFβ blocking IC50” value is 0.08 nM.

As for B5, the “HEKBlue TGFβ blocking IC50” value was determined as 0.66 nM.

Consider B6, for which the “HEKBlue TGFβ blocking IC50” value was greater than 200 nM.

Take B7: the “HEKBlue TGFβ blocking IC50” value was greater than 200 nM.

Consider B8, for which the “HEKBlue TGFβ blocking IC50” value came to 1.4 nM.

B9: the “HEKBlue TGFβ blocking IC50” value amounted to 0.23 nM.

As for B10, the “HEKBlue TGFβ blocking IC50” value was determined as 6.7 nM.

The next experiment deals with T3, human TGFβ1, mature receptor-binding …. Nature of the experiment: cell-based or functional assay. This is another data set of the same source.
Regarding B11, the “HEKBlue TGFβ blocking IC50” value was greater than 200 nM.

As for B12, the “HEKBlue TGFβ blocking IC50” value was greater than 200 nM.

With B13, the “HEKBlue TGFβ blocking IC50” value is greater than 200 nM.

The next experiment addresses T1, human TGFβ2, mature receptor-binding …. Put plainly: cell-based or functional assay. This is another data set of the same source.
Take B11: the “HEKBlue TGFβ blocking IC50” value is 0.09 nM.

For the molecule B12, the “HEKBlue TGFβ blocking IC50” value amounted to 0.16 nM.

In the case of B13, the “HEKBlue TGFβ blocking IC50” value stood at 0.09 nM.

A further experiment has as its target T2, human TGFβ3, mature dimeric form. Put plainly: cell-based or functional assay. This is another data set of the same source.
With B11, the “HEKBlue TGFβ blocking IC50” value turned out to be 0.11 nM.

In the case of B12, the “HEKBlue TGFβ blocking IC50” value was 0.17 nM.

Consider B13, for which the “HEKBlue TGFβ blocking IC50” value was determined as 0.13 nM.
